From PMC6374468 (Nature Communications, 2019)

Biological target: monomeric gp120 from isolate BaL (HIV-1 clade B, isolate BaL (clone not …, UniProt Q6TAP7, strain))
Assay: ELISA

B1: VRC01 FR3-03 (antibody, V domains shown)
VH: QVQLVQSGGQMKKPGESMRISCRASGYEFIDCTLNWIRLAPGKRPEWMGWLKPRGGAVNYARPLQGRVTMTRQLSQDPDDPDWGTAFLELRSLTVDDTAVYFCTRGKNCDYNWDFEHWGRGTPVIVGG
VL: EIVLTQSPGTLSLSPGETAIISCRTSQYGSLAWYQQRPGQAPRLVIYSGSTRAAGIPDRFSGSRWGPDYNLTISNLESGDFGVYYCQQYEFFGQGTKVQVG
Question: Does B1 bind?
Answer: binds
